Measurements taken from patent US20070116673.

Key:
[1] = target: T1, synthetic integrin α1 cytoplasmic tail peptide (RPLKKKMEKRPLKKKMEK)
T1 chain: RPLKKKMEKRPLKKKMEK

[2] = target: T2, α2 peptide KLGFFKRKYEKMTKNPDEIDETTELSS (synthetic integrin α2 cytoplasmic tail peptide)
T2 chain: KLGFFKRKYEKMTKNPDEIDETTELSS

B1: endogenous TCPTP (T cell protein tyrosine phosphatase) of HeLa cells (protein)
chain: MPTTIEREFEELDTQRRWQPLYLEIRNESHDYPHRVAKFPENRNRNRYRDVSPYDHSRVKLQNAENDYINASLVDIEEAQRSYILTQGPLPNTCCHFWLMVWQQKTKAVVMLNRIVEKESVKCAQYWPTDDQEMLFKETGFSVKLLSEDVKSYYTVHLLQLENINSGETRTISHFHYTTWPDFGVPESPASFLNFLFKVRESGSLNPDHGPAVIHCSAGIGRSGTFSLVDTCLVLMEKGDDINIKQVLLNMRKYRMGLIQTPDQLRFSYMAIIEGAKCIKGDSSIQKRWKELSKEDLSPAFDHSPNKIMTEKYNGNRIGLEEEKLTGDRCTGLSSKMQDTMEENSESALRKRIREDRKATTAQKVQQMKQRLNENERKRKRWLYWQPILTKMGFMSVILVGAFVGWTLFFQQNAL
[1]
  catalytic activity of immunoprecipitated TCPTP (diFMUP substrate): increased 2.95±0.48 fold
[2]
  catalytic activity of immunoprecipitated TCPTP (diFMUP substrate): the corresponding α2 tail peptide had no effect

B2: SHP-2 (protein tyrosine phosphatase immunoprecipitated from HeLa lysates) (protein)
chain: TSRRWFHPNITGVEAENLLLTRGVDGSFLARPSKSNPGDFTLSVRRNGAVTHIKIQNTGDYYDLYGGEKFATLAELVQYYMEHHGQLKEKNGDVIELKYPLNCADPTSERWFHGHLSGKEAEKLLTEKGKHGSFLVRESQSHPGDFVLSVRTGDDKGESNDGKSKVTHVMIRCQELKYDVGGGERFDSLTDLVEHYKKNPMVETLGTVLQLKQPLNTTRINAAEIESRVRELSKLAETTDKVKQGFWEEFETLQQQECKLLYSRKEGQRQENKNKNRYKNILPFDHTRVVLHDGDPNEPVSDYINANIIMPEFETKCNNSKPKKSYIATQGCLQNTVNDFWRMVFQENSRVIVMTTKEVERGKSKCVKYWPDEYALKEYGVMRVRNVKESAAHDYTLRELKLSKVGQGNTERTVWQYHFRTWPDHGVPSDPGGVLDFLEEVHHKQESIMDAGPVVVHCSAGIGRTGTFIVIDILIDIIREKGVDCDIDVPKTIQMVRSQRSGMVQTEAQYRFIYMAVQHYIETLQRRIEEEQKSKRKGHEYTNIKYSLADQTSGDQSPLPPCTPTPPCAEMREDSARVYENVGLMQQQKSFR
[1]
  phosphatase activity of immunoprecipitated SHP-2 (diFMUP substrate): another protein tyrosine phosphatase, SHP-2, was not activated by either peptide
[2]
  phosphatase activity of immunoprecipitated SHP-2 (diFMUP substrate): another protein tyrosine phosphatase, SHP-2, was not activated by either peptide
